Results reported in US20230381350A1 (PRECIRIX N V, published 2023).

Experiments:
[1] = biological target: T1, human DPP IV recombinant protein (human, UniProt P27487 29-766); test: ELISA, coated human DPP IV, HA-His6-tagged VHH extract, anti-HA detection
T1 construct: extracellular domain; Bought protein; also called Dipeptidyl amino-peptidase IV
Procedure: (§1) The day before measurement, 0.1 μg recombinant protein at a concentration of 1 μg/mL in 100 mM NaHCO₃, pH 8.2 was coated in a 96-well ELISA plate (Nunc MaxiSorp). Per VHH clone also a blank coated well was foreseen (only buffer). The wells were overcoated with protein-free T20 (PBS) blocking buffer (Pierce). After washing with PBS, pH7.4, 0.05% Tween, VHH-containing bacterial freeze-thaw extract was added to every well. Binding of HA-His₆-tagged VHHs was detected by using mouse anti-HA.11 epitope tag (clone 16B12, Biolegend) as the primary Ab and goat anti-mouse IgG (whole molecule) alkaline phosphatase conjugate (Sigma-Aldrich) as the secondary Ab, with thorough washing with PBS, pH 7.4, 0.05% Tween in between. Signals were developed using phosphatase substrate (Sigma-Aldrich) in AP blot buffer (100 mM NaCl, 50 mM MgCl₂, 100 mM Tris, pH 9.5). The absorbance was determined at 405 nm using an absorbance microplate reader (Molecular Devices). Per clone the ratio was determined between the absorbance in the antigen-coated well versus the well without antigen.

[2] = biological target: T2, human FAP recombinant protein (human, UniProt Q12884 26-760); test: ELISA, coated human FAP recombinant protein, HA-His6-tagged VHH extract, anti-HA detection
T2 construct: The protein was biotinylated with sulfo-NHS-SS-biotin for bio-layer interferometry; also called extracellular domain of human FAP with N-terminal His6-tag
T2 sequence: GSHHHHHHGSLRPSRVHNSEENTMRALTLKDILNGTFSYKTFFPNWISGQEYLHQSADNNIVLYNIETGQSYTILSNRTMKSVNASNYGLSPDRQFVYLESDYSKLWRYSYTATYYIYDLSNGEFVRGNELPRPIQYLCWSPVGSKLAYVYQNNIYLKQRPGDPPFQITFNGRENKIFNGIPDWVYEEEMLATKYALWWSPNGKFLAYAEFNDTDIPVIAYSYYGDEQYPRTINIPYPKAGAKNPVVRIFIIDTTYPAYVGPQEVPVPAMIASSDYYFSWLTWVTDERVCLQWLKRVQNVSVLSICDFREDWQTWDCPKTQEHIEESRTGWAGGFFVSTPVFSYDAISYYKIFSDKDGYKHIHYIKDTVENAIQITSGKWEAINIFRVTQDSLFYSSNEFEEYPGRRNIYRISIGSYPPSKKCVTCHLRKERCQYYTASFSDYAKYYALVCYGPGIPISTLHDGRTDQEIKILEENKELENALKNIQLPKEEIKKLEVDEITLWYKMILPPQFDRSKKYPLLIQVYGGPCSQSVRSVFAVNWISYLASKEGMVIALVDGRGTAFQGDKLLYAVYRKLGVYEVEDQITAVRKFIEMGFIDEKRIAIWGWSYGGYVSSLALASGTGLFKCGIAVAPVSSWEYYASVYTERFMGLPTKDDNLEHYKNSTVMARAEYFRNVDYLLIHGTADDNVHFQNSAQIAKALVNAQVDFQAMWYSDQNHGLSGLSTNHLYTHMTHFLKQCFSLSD
Procedure: as §1

[3] = biological target: T3, murine FAP recombinant protein (murine, UniProt P97321 26-761); test: ELISA on coated recombinant protein, VHH-containing bacterial extract, anti-HA detection, signal-to-background ratio
T3 construct: The protein was biotinylated for bio-layer interferometry; also called extracellular domain of murine FAP with N-terminal His6-tag
T3 sequence: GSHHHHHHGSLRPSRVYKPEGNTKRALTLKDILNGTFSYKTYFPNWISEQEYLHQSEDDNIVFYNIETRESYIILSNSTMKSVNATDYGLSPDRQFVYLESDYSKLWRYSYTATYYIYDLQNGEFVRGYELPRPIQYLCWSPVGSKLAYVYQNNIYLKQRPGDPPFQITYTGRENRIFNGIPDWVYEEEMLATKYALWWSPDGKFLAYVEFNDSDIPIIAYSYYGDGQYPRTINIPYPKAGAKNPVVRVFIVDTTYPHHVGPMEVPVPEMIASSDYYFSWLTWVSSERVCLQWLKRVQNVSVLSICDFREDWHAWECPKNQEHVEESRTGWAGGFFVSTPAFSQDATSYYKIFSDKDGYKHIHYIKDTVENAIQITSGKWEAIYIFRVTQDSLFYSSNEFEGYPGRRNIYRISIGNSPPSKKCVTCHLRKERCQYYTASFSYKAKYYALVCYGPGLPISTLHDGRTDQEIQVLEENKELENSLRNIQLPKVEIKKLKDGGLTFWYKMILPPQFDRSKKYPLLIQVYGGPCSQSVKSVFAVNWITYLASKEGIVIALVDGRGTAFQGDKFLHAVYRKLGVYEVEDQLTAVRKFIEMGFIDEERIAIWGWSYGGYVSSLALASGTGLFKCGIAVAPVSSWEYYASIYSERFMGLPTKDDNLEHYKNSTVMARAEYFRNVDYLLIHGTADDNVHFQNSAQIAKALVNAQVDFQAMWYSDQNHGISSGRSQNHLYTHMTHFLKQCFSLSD
Procedure: as §1

[4] = biological target: T1, human DPP IV recombinant protein; test: as above
Procedure: as §1

[5] = biological target: T4, murine FAP expressed on cells (murine, UniProt P97321 1-761); test: flow cytometry on murine FAP-transfected HEK293 cells, VHH-containing bacterial extract, anti-HA and PE-conjugated secondary detection, Δmfi against cells without VHH
T4 construct: also called murine FAP cell surface protein
T4 sequence: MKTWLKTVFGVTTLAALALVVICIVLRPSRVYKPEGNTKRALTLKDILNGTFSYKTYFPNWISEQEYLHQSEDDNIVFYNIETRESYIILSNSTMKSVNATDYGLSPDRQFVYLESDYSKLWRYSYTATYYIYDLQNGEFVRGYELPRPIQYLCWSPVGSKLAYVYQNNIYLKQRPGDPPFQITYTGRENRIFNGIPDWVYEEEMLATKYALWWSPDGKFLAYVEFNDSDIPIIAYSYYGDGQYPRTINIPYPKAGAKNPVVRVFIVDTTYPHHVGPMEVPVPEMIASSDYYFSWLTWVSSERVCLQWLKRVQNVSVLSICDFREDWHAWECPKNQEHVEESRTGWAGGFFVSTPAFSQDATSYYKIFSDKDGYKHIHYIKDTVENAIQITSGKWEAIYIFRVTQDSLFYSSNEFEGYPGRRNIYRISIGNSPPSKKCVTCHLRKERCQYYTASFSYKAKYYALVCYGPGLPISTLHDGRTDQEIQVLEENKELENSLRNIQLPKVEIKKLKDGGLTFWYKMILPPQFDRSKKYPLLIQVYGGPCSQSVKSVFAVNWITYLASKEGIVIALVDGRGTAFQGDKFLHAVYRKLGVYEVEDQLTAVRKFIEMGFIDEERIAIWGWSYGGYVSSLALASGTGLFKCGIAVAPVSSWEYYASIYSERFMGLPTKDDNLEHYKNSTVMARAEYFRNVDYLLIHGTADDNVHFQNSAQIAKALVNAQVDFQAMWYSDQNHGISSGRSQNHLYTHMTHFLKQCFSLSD
Procedure: The cell binding was tested by flow cytometry experiments. Per test condition 1×10⁵ to 2×10⁵ cells, washed in PBS, 0.5% BSA, were pelleted in the well of a 96-well U-bottom plate. The cell pellets were resuspended and incubated with the VHH-containing bacterial freeze-thaw extracts (diluted in PBS, 0.5% BSA). Binding of HA-His₆-tagged VHHs was detected by using mouse anti-HA.11 epitope tag (clone 16B12, Biolegend) as the primary detection antibody and PE-conjugated rat anti-mouse IgG1 (clone A85-1, BD Pharmingen) as the secondary detection antibody, with washing with PBS, 0.5% BSA in between, and finally resuspended in PBS, 0.5% BSA.
Flow cytometry was performed on a FACS Canto II (BD Biosciences). Data were analyzed using FlowJo software. Based on the forward scatter-side scatter plot a single cell gate was drawn. The median fluorescence intensity was determined on a histogram for the phycoerythrin signal of the single cells. The difference in median fluorescence intensity (A mfi) was calculated relative to a test condition without incubation of VHHs (cells+primary Ab+secondary Ab), and are shown in FIG. 3.

[6] = biological target: T2, human FAP recombinant protein; test: bio-layer interferometry, biotinylated human FAP on sensor
Procedure: The kinetic parameters of antigen binding by purified VHHs were determined via bio-layer interferometry with an Octet RED96 instrument (ForteBio). The assay was performed at 25° C. with shaking at 1000 rpm. Streptavidin coated SA sensors were equilibrated in assay buffer (HBS supplemented with 0.5% BSA, 0.1% Tween), before loading for 5 min with the biotinylated FAP recombinant protein at a concentration of 5 μg/ml. His₆-tagged VHHs were analyzed in a threefold serial dilution from 30 nM to 0.4 nM in assay buffer (except for VHH B3 binding murine FAP recombinant protein, for which a fivefold serial dilution from 1000 nM to 1.6 nM was employed). First the baseline was measured for 180 s in assay buffer, followed by 5 subsequent association phases of 180 s with the VHH preparations in increasing order of concentration, with 75 s intermediate dissociation phases in assay buffer in between, and a final dissociation phase in assay buffer of 30 min. […]
Binding curves were exported and analyzed using the BIAevaluation analysis software (GE Healthcare). […]
(§2) Table 7 gives an overview of the kinetic parameters of antigen binding for His₆-tagged VHHs B1, B2, B3 and B4 (SEQ ID NO: 21-24), as determined by bio-layer interferometry with biotinylated human or murine FAP recombinant protein that was loaded on the sensor.

[7] = biological target: T3, murine FAP recombinant protein; test: bio-layer interferometry (Octet RED96), biotinylated murine FAP on streptavidin sensor, kinetic titration, 25 °C
Procedure: (§3) The kinetic parameters of antigen binding by purified VHHs were determined via bio-layer interferometry with an Octet RED96 instrument (ForteBio). The assay was performed at 25° C. with shaking at 1000 rpm. Streptavidin coated SA sensors were equilibrated in assay buffer (HBS supplemented with 0.5% BSA, 0.1% Tween), before loading for 5 min with the biotinylated FAP recombinant protein at a concentration of 5 μg/ml. His₆-tagged VHHs were analyzed in a threefold serial dilution from 30 nM to 0.4 nM in assay buffer (except for VHH B3 binding murine FAP recombinant protein, for which a fivefold serial dilution from 1000 nM to 1.6 nM was employed). First the baseline was measured for 180 s in assay buffer, followed by 5 subsequent association phases of 180 s with the VHH preparations in increasing order of concentration, with 75 s intermediate dissociation phases in assay buffer in between, and a final dissociation phase in assay buffer of 30 min. In every assay a reference sensor loaded with FAP recombinant protein was included that was incubated in assay buffer during the association phases.
(§4) Binding curves were exported and analyzed using the BIAevaluation analysis software (GE Healthcare). First the y-axes of the different curves were aligned to the median of the last 5 s of the baseline measurement. Subsequently, the sensorgram of the reference sensor was subtracted from all other sensorgrams. The resulting binding curve was fitted using a general fit with the ‘kinetic titration with drift’ binding model (1:1 (antigen:analyte) model; Karlsson, R. et al (2006), Analyzing a kinetic titration series using affinity biosensors. Analytical Biochemistry 349: 136-147), with Rmax fitted global, RI local and drift set to 0.
as §2

[8] = biological target: T2, human FAP recombinant protein; test: bio-layer interferometry (Octet RED96), biotinylated human FAP on streptavidin sensor, kinetic titration, 25 °C
Procedure: as §3, §4, §2

T1 sequence (P27487 29-766): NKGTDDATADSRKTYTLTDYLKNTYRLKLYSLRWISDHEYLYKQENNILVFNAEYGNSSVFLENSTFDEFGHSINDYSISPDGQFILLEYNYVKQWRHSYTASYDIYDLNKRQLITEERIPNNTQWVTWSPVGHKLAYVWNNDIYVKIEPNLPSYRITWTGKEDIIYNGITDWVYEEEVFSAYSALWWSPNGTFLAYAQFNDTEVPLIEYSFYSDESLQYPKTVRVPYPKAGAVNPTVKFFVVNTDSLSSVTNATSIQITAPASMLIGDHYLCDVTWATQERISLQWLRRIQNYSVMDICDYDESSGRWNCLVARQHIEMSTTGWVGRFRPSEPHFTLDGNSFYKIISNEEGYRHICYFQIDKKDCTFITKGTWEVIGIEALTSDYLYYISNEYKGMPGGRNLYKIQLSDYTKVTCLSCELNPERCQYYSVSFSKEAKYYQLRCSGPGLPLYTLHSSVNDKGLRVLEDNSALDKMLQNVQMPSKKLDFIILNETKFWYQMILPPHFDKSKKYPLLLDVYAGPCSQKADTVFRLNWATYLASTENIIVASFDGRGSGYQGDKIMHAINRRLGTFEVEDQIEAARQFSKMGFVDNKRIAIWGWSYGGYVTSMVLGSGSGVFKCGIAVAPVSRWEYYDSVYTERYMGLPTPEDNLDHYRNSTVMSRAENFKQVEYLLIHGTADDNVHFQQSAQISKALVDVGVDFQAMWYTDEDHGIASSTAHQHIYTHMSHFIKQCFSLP

B1: HA-His6-tagged VHH B3 (VHH)
VHH: QVQLQESGGGLVQAGGSLRLSCAVSGRLFSTNAMGWYRQAPGKQRELVAGITGGDRSNYADSVKGRFTISRDNGKNTLYLQMNSLKPEDTAVYYCNFYPPIVGDYWGQGTQVTVSS
notes: also called B3 with HA-His6-tag
With B1 the signal-to-background ratio [1] was ~1, the signal-to-background ratio [2] was > 25 and the binding result [3] was “no binding”. B1: no binding [4]; no binding [5].

B2: His6-tagged VHH B1 (VHH)
VHH: DVQLVESGGGLVQPGGSLRLSCVASGRLSSSNSMAWYRQVPGKRRELVAGITGGGETNYADFVGGRFTISRDNAKNGLYLQLNGLKPEDTAAYYCNFWPPLINYWGQGTQVTVSS
notes: Purified, unlabelled; used in bio-layer interferometry; also called B1 with His6-tag
With B2 the Kd [6] was < 0.05 nM, the Kd [7] was 0.742 nM and the koff [7] was 0.0014 s⁻¹. The kon [7] was 1.9e+06 M⁻¹ s⁻¹, the Kd [8] was 0.0378 nM and the koff [8] was 2.7e-05 s⁻¹. It also gave a kon [8] of 700000 M⁻¹ s⁻¹.
